Source: article PMC4267192

Biological target: CCA1-GST (UniProt P92973)
Test: EMSA
Conditions: 25 mM HEPES-KOH pH 7.5, 50 mM KCl, 2.5 mM DTT, 1 mM PMSF, 10% glycerol, 1 ug poly-dIdC in 10 ul, 20 min on ice (final concentrations calculated from 5X …)

Chain of CCA1-GST (P92973 whole entry): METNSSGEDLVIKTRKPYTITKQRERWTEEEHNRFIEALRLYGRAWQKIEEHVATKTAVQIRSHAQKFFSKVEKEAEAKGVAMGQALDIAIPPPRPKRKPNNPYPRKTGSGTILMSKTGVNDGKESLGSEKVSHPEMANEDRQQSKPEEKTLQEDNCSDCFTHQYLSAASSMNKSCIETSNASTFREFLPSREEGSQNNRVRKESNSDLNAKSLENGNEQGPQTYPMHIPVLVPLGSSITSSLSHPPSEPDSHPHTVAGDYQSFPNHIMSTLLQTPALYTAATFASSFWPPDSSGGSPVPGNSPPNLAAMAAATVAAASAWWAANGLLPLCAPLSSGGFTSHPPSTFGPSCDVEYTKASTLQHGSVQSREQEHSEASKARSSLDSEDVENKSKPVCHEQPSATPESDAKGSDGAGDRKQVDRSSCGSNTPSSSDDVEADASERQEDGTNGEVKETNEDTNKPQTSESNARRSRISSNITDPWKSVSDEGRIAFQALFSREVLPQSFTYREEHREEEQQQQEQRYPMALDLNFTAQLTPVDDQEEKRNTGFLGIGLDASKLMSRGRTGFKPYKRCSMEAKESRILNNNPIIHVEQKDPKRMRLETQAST

Sequence: AATCAATTCCTCTCTCTTAAAACAAAGAAGAAAAAAACAGAGAAGAAGAAGAAAAAATCTATCTCCGCCATGAACGCGAGAGCTCTTCTTTGCTCTTCAAATATTCACTCTCTCTAC (double strand) [PHT4;1 promoter probe 3]
- binding: binds

Sequence: GTTAGCTTACGAGCATAAATTGCGAGATCTATCTTACTTCCCCAATGAAAAAAAAATCTCAAAGATTTGGAAGTAGACCTATGAATAGAATTACAATAATACGGCAATACCAATAACAA (double strand) [PHT4;1 promoter probe 2]
- binding: binds
